Assay: soluble on expression in E. coli; label from the status in PepcDB or PDB records

| Sequence | soluble on expression in E. coli |
| --- | --- |
| MNKVWLTGLLTATASGVFSASTLAATEITWWHAMGGQLGETVNQLATDFNASQSDYKLTPVYKGSYTETLTAGIAAFRAGQAPNILQVFDAGAATIMSSKGVAKPVQDLMIESGYPFTAQDYIAGVRNFYADNTGKMVGMPFNSSTPVLYYNKDMLASVNAQAPQTYEQLEQVAAKLAEKGQAGFAQSLTPWIMFENFKSRHNLPLSDKQNGYQDLSTKIMFNSDDMLMHVKKLKEWSDKGYYKYYGSDWDANQTPFERGEVAMWMGSSGSFGGLRNRVKFNLGTTYLPYWESVTKNPTHTFIGGAALFALQGHTPAQDKGVAAFFAYLTKPETQMNWHKTTGYVPVTNAAYDLTKQSGYYQENPDAEVGVKQLSLPDGEWTKGYRLGYYPQVREVMHREFDNIFSGRSTVESSLNKVEDESAKLLNRFARTVQ | not soluble |
| MNLEKLEVSHDADSLCVVIEISKHSNIKYELDKESGALMVDRVLYGAQNYPANYGFVPNTLGSDGDPVDALVLSDVAFQAGSVVKARLVGVLNMEDESGMDEKLIALPIDKIDPTHSYVKDIDDLSKHTLDKIKHFFETYKDLEPNKWVKVKGFENKESAIKVLEKAIKAYQG | soluble |
| MNLFEYKLSVVRQVMDKYEVAEEAKFISGLSKGSMVNALSRKKKLPNKEAKFTRYVIYTVDVERIIDMMEEPYRTVIKKRYYDASLDTVKKDFGLQNKREAYFLVKKSVNKFYDLLENYWK | not soluble |
| MNLIDNHIHTNFSSDGKDSMEDTIKKAISIGVRYLTFTDHLEHDEDRGFCINYNDYVPVFNKFKEKYKKDIELLLGVEVGYRKHLKNEIEEIINSNPFDFVLCSTHTIDNVPVPSKAYFKGLSKEDAYYKYFNSILETNREFGDYNIYGHLDYISRYGIYSDNRVIYNDFKDVIDEVLKSIINNGSGIELNTSGYRYGLNAIHPNEDILKRYKELGGFIVTVGSDSHRVEDICKDFDVAYDMLKYLDFKYVSLFKERETYFVNIEKVKSNNIA | not soluble |
| MNLQHHFLIAMPALQDPIFRRSVVYICEHNQNGAMGIIVNKPLENLQIEGILEKLKITPESRDSAIRLDKAVMLGGPLAEDRGFILHTPPSRFASSIRISDNTVITTSRDVLETLGTQQQPSDVLVALGYASWDKGQLEQELLDNAWLTAPADLNILFKTPIAERWREAAKLIGIDILTMPGVAGHALEHHHHHH | soluble |
| MNMAHTTTSMEIFGSPEQVWQLIGGFNSLPDWLPYIPSSKLTEGGRVRHLANPDGDTIIERLEVFNDKERYYTYSIMNAPFPVTNYLSTIQVKEGTESNTSLVEWSGTFTPVEVSDEEAINLFHGIYSDGLKALQQAFLDLEHHHHHH | soluble |
| MNMALISLAIDYKKSPIEVRSEFALSGLDVSMLYRSILAIDNVVHAVILSTCNRTEVYLEISDLRVVDDILVWWQGYVRNPNYKIKDYFKLRQGTEVIMHLMKLACGLESMVLGEPQILGQVKDSYTLSKKNHAIGKELDRVFQKVFATAKRVRSETRIGHCPVSVAFSAITLAKRQLDNISSKNVLIIGAGQTGELLFRHVTALAPKQIMLANRTIEKAQKITSAFRNASAHYLSELPQLIKKADIIIAAVNVLEYIVTCKYVGDKPRVFIDISIPQALDPKLGELEQNVYYCVDDINAVIEDNKDKRKYESSKAQKIIVKSLEEYLEKEKAIISNSAIKELFQKADGLVDLSLEKSLAKIRNGKDAEEIIKRFAYEIKKKVLHYPVVGMKEASKQGRSDCLVCMKRMFGLNVEK | not soluble |
| MNMDVNAVKNSTRGKHWFNLLTQGFNLIASGIDSLLIAEGQLGENKISVFCVVPDSHNHFPRARQGEVGLLEGWSLAQAIDQIIESDQNLTHKRGILCIVDVPSQAYGRREELLGIHQALAAAADSYVRARLAGHPVVSLLVGKSMSGAFLAHGYQANRILALKDQGVMVHAMGKESAARVTLRTVDELENLAANIPPMAYDIESYNSLGLLSGLLNVSHADHPTTSDIDYIQQTLSQTFQEIRNQGTSDLKHRLSAKNREASVHVRELLREQWS | not soluble |
| MNNGKLFLVGTPIGNLKDITLRALETLQNCDVIAAEDTRQSLKLLNHFDIKKPLISYHKFNENNRSSELMDMVREGKKVALVTDAGMPGISDPGSVIVEKFIENNLEFEVIPG | not soluble |
| MNNKKTGVLLVNLGTPTAPTAAAVKQFLSEFLHDKRVVDMNRFIWCPLLHGVILPIRAPKVAKLYESVWMEEGSPLLVYSQRQVKALEARLSMPVALGMTYGEPRIKSGIESLEQQGCDEIIILPLYPQYSRTTTAAVFDQIAKQYKTTPVLPNFTMIHNYHDHPLYIKALANSVRQSWERNGKGDYVLCSYHGIPQRFVDNGDIYAAHCERTTELLAQELGLTSEQIGMSYQSRFGREEWLKPYTSETLKALAPKGIKSLDIISPAFSSDCLETLEELSEECKEIFMESGGQKYTFIPCLNDDELHIEMMADIVSSKIFNK | not soluble |
| MNNMTDLKAIQARSLEMAEYFVAFCKEHDLLCYLCGGGAIGALRNKGFIPWDDDLDFFMPRKDYEKLAELWPRYADERYFLSKSHKDFVDRNLFITIRDKKTTCIKPYQQDLDLPHGLALDVLPLDYYPKNPAERKKQVRWALIYSLFCAQTIPEKHGDLMKWGSRILLGLTPKSLRYRIWKKAEKEMTKYDLADCDGITELCSGPGYMRNKYPITSFEDNLFLPFEGTEMPIPIGYDVYLRTAFGDYMTPPPADKQVPHHDAVIADMDKSYTEYKGEYGGLEHHHHHH | soluble |
| MNNNDLVAKLWKLCDNLRDGGVSYQNYVNELASLLFLKMCKETGQEADYLPEGYRWDDLKSRIGQDQMQFYRNLLVQLGSDEKKLVQAVFHNVSTTIEQPKQLTELVSYMDALDWYNGNHGKSRDDFGDMYEGLLQKNANETKSGAGQYFTPRPLIKTIIHLLKPQPREVVQDPAAGTAGFLIEADRYVKSQTNDLDDLDGDTQDFQIHRAFIGLELVPGTRRLALMNCLLHDIEGNLDHGGAIRLGNTLGSDGENLPKAHIVATNPPFGSAAGTNITRTFVHPTSNKQLCFMQHIIETLHPGGRAAVVVPDNVLFEGGKGTDIRRDLMDKCHLHTILRLPTGIFYAQGVKTNVLFFTKGTVTNPHQDKNCTDDVWVYDLRTNMPSFGKRTPFTEQHLQPFETVYGEDPHGLSPREEGEWSFNAEESEVADSEENKNTDQHQATSRWRKFSREWIRSAKSDSLDISWLKDKDSIDADSLPEPDVLAAEAMGELVQALGELDALMRELGAGDEADAQRQLLNEAFGEVKA | not soluble |
| MNNREIVQKLWNLCNVLRDDGITYHQYVTELTYLLFLKMMKETGQEYIIPEPYRWDVLAKKDGIELKTYYQQLLMALGQEENELLRQIYTDATSNIREPKNLEKIIRTIDALDWYNAKEEGLGALYEGLLEKNASELKSGAGQYFTPRVLIDVIVELVDPKPGERCHDPAAGTFGFMIAASRHVRAKTDDYFDLSEEEIRFQKYEAFSGVELVRDTHRLAVMNALLHDVHGDILLGDTLSPLGEQLKGYDVILTNPPFGTKKGGERATRTDFTFMTSNKQLNFLQHIYRALRPNGKARAAVVVPDNVLFEGGVGADIRRDLMDKCNVHTILRLPTGIFYAQGVKTNVLFFTRGETDTGNTKEVWVYDLRTNMPSFGKRNPLTKDHFAGFMKAYTAEDRHQVDDERWNVFTRDDIAKKGDSLDIGLIADESLSVYDNLPDPIDSAEEAVEKLELAISLLNEVIAELKAAEHPPRYEPAKTEMLHVAERLEVSER | not soluble |
| MNNSAFTFQTLHPDTIMDALFKQGIRVDSGLTPLNSYENRVYQFQDEERRRFVVKFYRPERWTADQILEEHQFALQLVNDEVPVAAPVAFNGQTLLNHQGFYFAVFPSVGGRQFEADNIDQMEAVGRYLGRMHQTGRKQLFIHRPTIGLNEYLIEPRKLFEDATLIPSGLKAAFLKATDELIAAVTAHWREDFTVLRLHGDCHAGNILWRDGPMFVDLDDARNGPAIQDLWMLLNGDKAQQRMQLETIIEAYEEFSEFDTAEIGLIEPLRAMRLVYYLAWLMRHWADPAFPKNFPWLTGEDYWLRQTATFIEQAKVLQEPPLQLTPMY | not soluble |
| MNNTIETILAHRSIRKFTAVPITDEQRQTIIQAGLAASSSSMLQVVSIVRVTDSEKRNELAQFAGNQAYVESAAEFLVFCIDYQRHATINPDVQADFTELTLIGAVDSGIMAQNCLLAAESMGLGGVYIGGLRNSAAQVDELLGLPENSAVLFGMCLGHPDQNPEVKPRLPAHVVVHENQYQELNLDDIQSYDQTMQAYYASRTSNQKLSTWSQEVTGKLAGESRPHILPYLNSKGLAKR | soluble |
| MNPKHSCTNFGADIPVNSQLIVTTSELRQKLKEKNKFILVDNRTWDEHIGKVSGYTYYDKKGRIPGALYGHSGSDSVSLEEYRNIDNTMRNKYEILEMWDKENIDVNKQLIFMCGSGWRAAEVLTYANVIGVENTSLYSDGWMGWSLDNSNLIEVGEHKLEHHHHHH | not soluble |
| MNPYQAHRIKKLKYQLENAESYEEWKSTALQLDEETGLQEWKYDNCSAYFDAELISYRLNLLRKYRLQQRVMDSVYLLQEGLTHDIANIGHPMLFAATYVGTKQIIEDYIEEVSLSLAFIAASQCQTLTVAEKLKFFKNCQKTYGLEHHHHHH | not soluble |
| MNQEQNDIAIRVSNLSKCYHIYDTPRDRLKQFILPRLHHLTGQTPRQYFREFWALRDVSFEVKKGETIGIIGRNGSGKSTLLQMICGTLNPTSGSITTYGRIAALLELGSGFNPEFTGRENVYMNASVLGLSQEETDARFDDIAAFADIGEFIEQPVKTYSSGMMVRLGFAVQAQVKPDILIVDEALAVGDAKFQAKCFDRLQQLKDGGTSILLVTHSSEQIVTHCSEAILLDGGDVIEHGEPRYVVNHYMDLLFGKERKSYSASAFSTESNSVEPTQDDNLSLNFIDDVFSSHANYNEHEYRWGDGTATILDFYLLTDNEPYPSVITSGQSVVLGVAVRFYEDLVRPILGITIKTKEGVTVYGVNSETLETDEIKVLGSKGTTALIKAEFICRLAPGDYFISLGLATRKGEEIVPHDRRYDAIYLQIAPVTKFFGLVDLGLKLSAQNTSLLEHHHHHH | soluble |
| MNQLIFDFAAHDYPSFDKFLGTENAELVYVLRHKHGQFIYVWGEEGAGKSHLLQAWVAQALEAGKNAAYIDAASMPLTDAAFEAEYLAVDQVEKLGNEEQALLFSIFNRFRNSGKGFLLLGSEYTPQQLVIREDLRTRMAYCLVYEVKPLTDQEKIDALASMAAARQVTVDSEIFEYLLKHWRRDMDSLMMMLDTLDNYAVTMGKRITLPLLRQLLKQQETQ | not soluble |
| MNQLIFDFAAHDYPSFDKFLGTENAELVYVLRHKHGQFIYVWGEEGAGKSHLLQAWVAQALEAGKNAAYIDAASMPLTDAAFEAEYLAVDQVEKLGNEEQALLFSIFNRFRNSGKGFLLLGSEYTPQQLVIREDLRTRMAYCLVYEVKPLTDQEKIDALASMAAARQVTVDSEIFEYLLKHWRRDMDSLMMMLDTLDNYAVTMGKRITLPLLRQLLKQQETQLEHHHHHH | soluble |
| MNQPIELSLEQQFSIRSFATQVQNMSHDQAKDFLVKLYEQMVVREATYQELLKHQWGLDSGSTPA | soluble |
| MNRFSGKSVIVTGSSSGIGRATAVLFAKYGAQVTITGRDAGKLEATKKKMLKVMKNPENVCVVVANLTDSDGQDEIVQSALDAFGRIDVLVNNAGANVVDGTFNTDQSTELYHKTFQINFEAVIEMVKKTKNHLIESKGEIVNVSSVAAGPQALAPSPYYAASKAALDQYTRCVALDLILQGVRVNSVSPGVVTSGFLGAMGMSEQVQKQIEENFTSNRACIPAGVCGKPEDIAELIIFLADRKRSSYIIGQSIVADGGTSLVSGLTAQNIQRNN | not soluble |

From the DeepSol protein solubility set
